From the supplement of paper PMC6757056
± gives the standard deviation of the averaged measurements.

B1: library; a variant is named by its letters at N, in order (parent)
chain: GCUGUCACCGGUGCUUGGUACGUUAUAUUCAGCCGGUCUGAUGAGUCUNNNNNNAGACGAAACAGC

Assays:
[1] = variants of: B1; assay: FACS-Seq fitted mean relative fluorescence mCherry/BFP without ligand (log10 relative fluorescence); HEK293T overexpressing SLC46A1; higher = higher reporter protein expression; settings: without (6R,S)-folinic acid; ligand present: no
How it was run: (§1)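 HEK293T libraries were lentivirally transduced with an mCherry reporter carrying the ribozyme switch and an EF1α-BFP marker, enriched, and incubated for 48 h with or without ligand before sorting into 6 bins by mCherry/BFP. Genomic DNA from each bin was PCR-amplified, barcoded and sequenced on MiSeq. Fluorescence is the fitted normal mean of the bin counts. The fit used log10(mCherry/BFP), and means were scaled to five spiked-in control ribozymes.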

[2] = variants of: B1; assay: normalized RNA/DNA level without ligand (relative to sTRSVctl = 100) (log10 (% of sTRSVctl)); HEK293T overexpressing SLC46A1; higher = less ribozyme self-cleavage, higher mRNA level; settings: without (6R,S)-folinic acid; ligand present: no
How it was run: (§2)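 Ribozyme switch library plasmids with mCherry reporters (eGFP in certain ligand experiments) went into HEK293T cells at 4 µg per 6-well well. Where ligand was used, it was applied 1 h before transfection, and total RNA was extracted with EDTA 72 h later for reverse transcription, amplification, barcoding and sequencing. RNA level is the RNA-to-DNA read ratio normalized to a spiked-in non-cleaving sequence or to the leading sequences, then scaled and log-transformed. Scaling was ×100 with log10, the leading set comprised 25 sequences, and the cutoff was ≥100 DNA reads.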

[3] = variants of: B1; assay: FACS-Seq fitted mean relative fluorescence mCherry/BFP with ligand (log10 relative fluorescence); HEK293T overexpressing SLC46A1; ligand concentration (+) FACS-Seq: 6 mM; higher = higher reporter protein expression; settings: with (6R,S)-folinic acid; ligand present: yes
How it was run: as §1

[4] = variants of: B1; assay: normalized RNA/DNA level with ligand (relative to sTRSVctl = 100) (log10 (% of sTRSVctl)); HEK293T overexpressing SLC46A1; ligand concentration (+) RNA-Seq: 6 mM; higher = less ribozyme self-cleavage, higher mRNA level; settings: with (6R,S)-folinic acid; ligand present: yes
How it was run: as §2

Variant: GCUGUCACCGGUGCUUGGUACGUUAUAUUCAGCCGGUCUGAUGAGUCUGAUGGCAGACGAAACAGC
- FACS-Seq fitted mean (log10) [1]: 0.227 ± 0.13
- normalized RNA/DNA level without ligand (log10) [2]: 1.967 ± 0.019
- FACS-Seq fitted mean (log10) [3]: 0.542 ± 0.2
- normalized RNA/DNA level with ligand (log10) [4]: 2.01 ± 0.021

Variant: GCUGUCACCGGUGCUUGGUACGUUAUAUUCAGCCGGUCUGAUGAGUCUUAUGGCAGACGAAACAGC
- FACS-Seq fitted mean (log10) [1]: -0.0353 ± 0.039
- normalized RNA/DNA level without ligand (log10) [2]: 1.948 ± 0.014
- FACS-Seq fitted mean (log10) [3]: -0.149 ± 0.14
- normalized RNA/DNA level with ligand (log10) [4]: 2 ± 0.032

Variant: GCUGUCACCGGUGCUUGGUACGUUAUAUUCAGCCGGUCUGAUGAGUCUAAUGGGAGACGAAACAGC
- FACS-Seq fitted mean (log10) [1]: 0.225 ± 0.07
- normalized RNA/DNA level without ligand (log10) [2]: 1.8 ± 0.022
- FACS-Seq fitted mean (log10) [3]: 0.233 ± 0.18
- normalized RNA/DNA level with ligand (log10) [4]: 2 ± 0.021

Variant: GCUGUCACCGGUGCUUGGUACGUUAUAUUCAGCCGGUCUGAUGAGUCUUAUGGGAGACGAAACAGC
- FACS-Seq fitted mean (log10) [1]: 0.1983 ± 0.0014
- normalized RNA/DNA level without ligand (log10) [2]: 1.54 ± 0.028
- FACS-Seq fitted mean (log10) [3]: 0.816 ± 0.12
- normalized RNA/DNA level with ligand (log10) [4]: 1.91 ± 0.045

Variant: GCUGUCACCGGUGCUUGGUACGUUAUAUUCAGCCGGUCUGAUGAGUCUGAUGGUAGACGAAACAGC
- FACS-Seq fitted mean (log10) [1]: 0.536 ± 0.091
- normalized RNA/DNA level without ligand (log10) [2]: 2.004 ± 0.0039
- FACS-Seq fitted mean (log10) [3]: 0.622 ± 0.045
- normalized RNA/DNA level with ligand (log10) [4]: 2.02 ± 0.049

Variant: GCUGUCACCGGUGCUUGGUACGUUAUAUUCAGCCGGUCUGAUGAGUCUAAUGGUAGACGAAACAGC
- FACS-Seq fitted mean (log10) [1]: 0.406 ± 0.13
- normalized RNA/DNA level without ligand (log10) [2]: 1.9355 ± 0.00018
- FACS-Seq fitted mean (log10) [3]: 0.51 ± 0.099
- normalized RNA/DNA level with ligand (log10) [4]: 2 ± 0.055

Variant: GCUGUCACCGGUGCUUGGUACGUUAUAUUCAGCCGGUCUGAUGAGUCUGAUGUAAGACGAAACAGC
- FACS-Seq fitted mean (log10) [1]: 0.1 ± 0.0045
- normalized RNA/DNA level without ligand (log10) [2]: 1.937 ± 0.004
- FACS-Seq fitted mean (log10) [3]: 0.322 ± 0.11
- normalized RNA/DNA level with ligand (log10) [4]: 2.001 ± 0.02

Variant: GCUGUCACCGGUGCUUGGUACGUUAUAUUCAGCCGGUCUGAUGAGUCUGAUGUCAGACGAAACAGC
- FACS-Seq fitted mean (log10) [1]: 0.311 ± 0.066
- normalized RNA/DNA level without ligand (log10) [2]: 2.021 ± 0.013
- FACS-Seq fitted mean (log10) [3]: 0.392 ± 0.21
- normalized RNA/DNA level with ligand (log10) [4]: 1.991 ± 0.014

Variant: GCUGUCACCGGUGCUUGGUACGUUAUAUUCAGCCGGUCUGAUGAGUCUAAUGUCAGACGAAACAGC
- FACS-Seq fitted mean (log10) [1]: -0.0892 ± 0.053
- normalized RNA/DNA level without ligand (log10) [2]: 2.075 ± 0.01
- FACS-Seq fitted mean (log10) [3]: -0.24 ± 0.095
- normalized RNA/DNA level with ligand (log10) [4]: 2.037 ± 0.0021

Variant: GCUGUCACCGGUGCUUGGUACGUUAUAUUCAGCCGGUCUGAUGAGUCUCAUGUGAGACGAAACAGC
- FACS-Seq fitted mean (log10) [1]: 0.241 ± 0.086
- normalized RNA/DNA level without ligand (log10) [2]: 2 ± 0.025
- FACS-Seq fitted mean (log10) [3]: 0.351 ± 0.27
- normalized RNA/DNA level with ligand (log10) [4]: 1.992 ± 0.011

Variant: GCUGUCACCGGUGCUUGGUACGUUAUAUUCAGCCGGUCUGAUGAGUCUGAUGUGAGACGAAACAGC
- FACS-Seq fitted mean (log10) [1]: 0.409 ± 0.09
- normalized RNA/DNA level without ligand (log10) [2]: 1.889 ± 0.0086
- FACS-Seq fitted mean (log10) [3]: 0.576 ± 0.27
- normalized RNA/DNA level with ligand (log10) [4]: 2.02 ± 0.021
